Reference: US20200123268A1 (UNIVERSIT DEGLI STUDI MAGNA GRAECIA CATANZARO, published 2020)

T1: CD43 #5 (truncated CD43, aa 91-400), expressed in HEK293T cells (human, UniProt P16150 91-400)
T1 construct: also called CD43 Clone #5; not shown: His tag from the vector pLenti-CMV-(insert)-Histag-GFP-2A-Puro
T1 sequence: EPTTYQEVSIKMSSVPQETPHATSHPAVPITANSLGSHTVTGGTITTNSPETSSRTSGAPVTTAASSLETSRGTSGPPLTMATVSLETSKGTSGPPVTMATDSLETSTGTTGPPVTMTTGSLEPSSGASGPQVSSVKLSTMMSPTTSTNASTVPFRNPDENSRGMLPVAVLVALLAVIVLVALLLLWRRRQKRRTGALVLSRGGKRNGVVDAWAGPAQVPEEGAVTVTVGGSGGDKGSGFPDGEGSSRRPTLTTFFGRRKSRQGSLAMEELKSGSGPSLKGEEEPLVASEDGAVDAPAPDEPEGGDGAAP

T2: human CD43, endogenous, on primary cells and cell lines that carry the UMG1 epitope (human, UniProt P16150 20-400, native glycosylation of the cell concerned)
T2 construct: also called UMG1 antigen; the target
T2 sequence: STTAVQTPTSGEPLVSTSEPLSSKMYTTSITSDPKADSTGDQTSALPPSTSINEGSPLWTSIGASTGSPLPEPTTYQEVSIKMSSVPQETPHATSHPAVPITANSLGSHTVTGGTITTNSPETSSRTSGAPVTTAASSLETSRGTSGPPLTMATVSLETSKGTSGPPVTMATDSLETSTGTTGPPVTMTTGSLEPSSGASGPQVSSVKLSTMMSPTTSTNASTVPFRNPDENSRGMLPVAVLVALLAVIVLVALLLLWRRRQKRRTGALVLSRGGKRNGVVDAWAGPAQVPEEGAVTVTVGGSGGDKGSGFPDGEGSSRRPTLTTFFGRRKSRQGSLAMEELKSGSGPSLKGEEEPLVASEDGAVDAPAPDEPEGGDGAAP

T3: CD43 #6 (CD43 with deletion of aa 64 to 78), expressed in HEK293T cells (human, UniProt P16150 20-400)
T3 construct: also called CD43 Clone #6; not shown: His tag from the vector pLenti-CMV-(insert)-Histag-GFP-2A-Puro
T3 sequence: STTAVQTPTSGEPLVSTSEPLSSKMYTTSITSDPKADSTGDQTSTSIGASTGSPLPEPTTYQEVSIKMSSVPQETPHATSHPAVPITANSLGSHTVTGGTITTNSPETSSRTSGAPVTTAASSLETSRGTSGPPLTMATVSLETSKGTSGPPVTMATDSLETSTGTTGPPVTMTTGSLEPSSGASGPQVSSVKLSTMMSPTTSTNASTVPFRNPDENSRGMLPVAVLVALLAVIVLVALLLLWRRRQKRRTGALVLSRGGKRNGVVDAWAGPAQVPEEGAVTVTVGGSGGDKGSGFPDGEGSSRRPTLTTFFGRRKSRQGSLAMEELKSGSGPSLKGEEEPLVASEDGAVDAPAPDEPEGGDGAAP

T4: recombinant human CD43 extracellular portion (aa 20-253) produced in E. coli (human, UniProt P16150 20-253)
T4 construct: Made in E. coli, without mammalian glycosylation; No tags are stated; also called aglycosylated extracellular portion of CD43; unglycosylated-CD43 protein
T4 sequence: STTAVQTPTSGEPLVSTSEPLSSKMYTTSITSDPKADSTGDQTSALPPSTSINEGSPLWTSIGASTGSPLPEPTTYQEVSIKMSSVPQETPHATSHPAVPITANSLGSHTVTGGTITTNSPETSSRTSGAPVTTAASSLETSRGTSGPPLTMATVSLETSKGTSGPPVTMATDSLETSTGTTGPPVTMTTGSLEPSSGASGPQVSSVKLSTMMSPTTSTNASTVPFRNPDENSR

T5: CD43 #7 (CD43 with deletion of aa 69), expressed in HEK293T cells (human, UniProt P16150 20-400)
T5 construct: also called CD43 Clone #7; not shown: His tag from the vector pLenti-CMV-(insert)-Histag-GFP-2A-Puro
T5 sequence: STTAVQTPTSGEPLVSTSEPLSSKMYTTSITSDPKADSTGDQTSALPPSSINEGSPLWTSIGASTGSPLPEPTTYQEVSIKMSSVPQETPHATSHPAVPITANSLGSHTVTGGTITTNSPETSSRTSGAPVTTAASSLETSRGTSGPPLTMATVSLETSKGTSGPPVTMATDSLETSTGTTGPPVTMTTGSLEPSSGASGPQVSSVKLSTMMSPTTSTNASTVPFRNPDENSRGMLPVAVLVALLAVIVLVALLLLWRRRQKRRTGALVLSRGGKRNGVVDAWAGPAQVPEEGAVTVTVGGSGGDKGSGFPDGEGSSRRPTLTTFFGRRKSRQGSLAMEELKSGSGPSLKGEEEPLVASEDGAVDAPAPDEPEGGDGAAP

T6: CD43 #8 (CD43 aa 1-400 with T69N), expressed in HEK293T cells (human, UniProt P16150 20-400)
T6 construct: also called CD43 Clone #8; not shown: His tag from the vector pLenti-CMV-(insert)-Histag-GFP-2A-Puro
T6 sequence: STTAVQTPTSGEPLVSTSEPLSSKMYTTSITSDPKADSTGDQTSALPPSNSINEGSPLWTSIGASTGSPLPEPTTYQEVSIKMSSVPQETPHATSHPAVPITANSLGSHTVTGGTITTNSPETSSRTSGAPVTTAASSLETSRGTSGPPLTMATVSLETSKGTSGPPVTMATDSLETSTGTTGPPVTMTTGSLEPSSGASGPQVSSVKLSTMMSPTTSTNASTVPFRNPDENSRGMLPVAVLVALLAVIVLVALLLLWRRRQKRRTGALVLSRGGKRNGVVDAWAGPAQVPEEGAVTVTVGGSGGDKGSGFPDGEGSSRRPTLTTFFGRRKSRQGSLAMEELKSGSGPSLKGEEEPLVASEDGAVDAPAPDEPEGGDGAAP


Legend:
[1] = target: T1, CD43 #5 (truncated CD43, aa 91-400), …; assay: western blot of lysates of transfected HEK293T cells
Procedure: (§1) Each vector was transiently expressed in HEK293T cells by using Lipofectamine LTX (Thermo Fisher Scientific, MA, USA) according to the manufacturer's protocol. HEK293T cells were maintained at 37° C. and 5% CO₂ in DMEM supplemented with 10% FBS and 1% penicillin/streptomycin (ThermoFisher Scientific, MA, USA). 72 h after transfection, cells were subjected to western blot or flow cytometry (FACS) analysis.
(§2) Briefly, whole cell protein extracts were obtained using NP40 lysis buffer complemented with Halt™ Protease and Phosphatase Inhibitor Cocktail (ThermoFisher Scientific, MA, USA). Bradford assay (Bio-Rad Laboratories, Berkeley, Calif., USA) was used to estimate protein concentration. Cell lysates were loaded at a concentration of 60 μg per lane and separated using NuPAGE™ 3-8% Tris-Acetate Protein Gels (Invitrogen, Thermo Scientific, MA, USA). […] Goat anti-mouse and rabbit anti-human HRP-conjugated antibodies (Invitrogen) were used as secondary antibodies (1:3,000 dilution).

[2] = target: T2, human CD43, endogenous, on primary …; assay: competition flow cytometry on CEM cells against 1 ug/ml h-UMG1-PE
Procedure: (§3) Approximately, 500,000 cells were collected and stained for each test. Cell were analyzed and measured with FACS Canto (Becton Dickinson) and analyzed by DIVA software (BD FACSDiva™ software). For each measurement 10,000 events were gated using the DIVA software. Each experiment was performed in triplicate.

[3] = target: T2, human CD43, endogenous, on primary …; assay: competition flow cytometry on HPB-ALL cells against 1 ug/ml h-UMG1-PE
Procedure: as §3

[4] = target: T3, CD43 #6 (CD43 with deletion of aa 64 to …); assay: western blot of lysates of transfected HEK293T cells
Procedure: as §1, §2

[5] = target: T4, recombinant human CD43 extracellular …; assay: SPRi (PlexArray HT), antibody printed on the chip, Recombinant Human CD-43 (AA20-253) as analyte at 2.84 to 45.6 nM, 25 C
Procedure: (§4) Antibodies dissolved in water were manually printed onto the bare gold-coated (thickness 47 nm) PlexArray Nanocapture Sensor Chip (Plexera Bioscience, Seattle, Wash., US) at 40% humidity. Different concentration of the analytes (CD43) were tested for affinity. Each concentration was printed in replicate, and each spot contained 0.2 uL of sample solution. The chip was incubated in 80% humidity at 4° C. for overnight, and rinsed with 10×PBST for 10 min, 1×PBST for 10 min, and deionized water twice for 10 min. The chip was then blocked with 5% (w/v) non-fat milk in water overnight, and washed with 10×PBST for 10 min, lx PBST for 10 min, and deionized water twice for 10 min before being dried under a stream of nitrogen prior to use. SPRi measurements were performed with PlexAray HT (Plexera Bioscience, Seattle, Wash., US). Collimated light (660 nm) passes through the coupling prism, reflects off the SPR-active gold surface, and is received by the CCD camera. […] The signal changes after binding and washing (in AU) are recorded as the assay value.
(§5) Selected protein-grafted regions in the SPR images were analyzed, and the average reflectivity variations of the chosen areas were plotted as a function of time. Real-time binding signals were recorded and analyzed by Data Analysis Module (DAM, Plexera Bioscience, Seattle, Wash., US). […]

[6] = target: T4, recombinant human CD43 extracellular …; assay: SPRi (PlexArray HT), antibody printed on the chip, CD43 aa 20-253 from E. coli as analyte, 25 C
Procedure: as §4, §5

[7] = target: T1, CD43 #5 (truncated CD43, aa 91-400), …; assay: flow cytometry on transfected HEK293T cells, percent h-UMG1-PE positive among GFP positive cells
Procedure: as §1
(§6) Samples were acquired by flow cytometry (LSRFortessa™ X-20, BD) and analyzed by DIVA software (BD FACSDiva™ software). A minimum of 20,000 events were gated for each measurement.

[8] = target: T3, CD43 #6 (CD43 with deletion of aa 64 to …); assay: as above
Procedure: as §1, §6

[9] = target: T5, CD43 #7 (CD43 with deletion of aa 69), …; assay: flow cytometry on transfected HEK293T cells, 1 ug/ml h-UMG1-PE, percent positive among GFP positive cells
Procedure: as §1, §6

[10] = target: T6, CD43 #8 (CD43 aa 1-400 with T69N), …; assay: as above
Procedure: as §1, §6

Binder | binding result [1] | IC50 (read off the curve) [2] [µg/mL] | IC50 (read off the curve) [3] [µg/mL] | binding result [4] | koff [5] [s⁻¹] | kon [5] [M⁻¹ s⁻¹] | Kd [6] [nM] | binding result [7] | binding result [8] | binding result [9] | binding result [10]
h-UMG1 (humanized UMG1 antibody H3-L4) (antibody, human IgG1, kappa, V domains shown, The full chains are given as Human Heavy Chain (VH3) and Human Light Chain (VL4); IgG1; also called unconjugated h-UMG1) VH: EVQLVESGGGLVQPGGSLRLSCVASGFTFSSFGMHWVRQAPGKGLEWVAYISSGSGNFYYVDTVKGRFTISRDNAKNSLYLQMNSLRAEDTAVYYCARSTYYHGSRGAMDYWGQGTLVTVSS VL: QVVMTQSPAFLSVTPGEKVTITCSASSSVSSMYWYQLKPDQAPKLLIYDTSKMASGVPIRFSGSGSGTDFTFTVSSVEAEDAATYYCQQWSSYPPITFGGGTKVEIKR | no binding (tested: 1:500 dilution) | ~0.04 | ~0.4 | no binding (tested: 1:500 dilution) | 0.000511 | 5140 | 99.4 |  |  |  | 
h-UMG1-PE (phycoerythrin-conjugated h-UMG1) (antibody, human IgG1, kappa, V domains shown, phycoerythrin conjugate, site not stated, also called h-UMG1-PE conjugated antibody) VH: EVQLVESGGGLVQPGGSLRLSCVASGFTFSSFGMHWVRQAPGKGLEWVAYISSGSGNFYYVDTVKGRFTISRDNAKNSLYLQMNSLRAEDTAVYYCARSTYYHGSRGAMDYWGQGTLVTVSS VL: QVVMTQSPAFLSVTPGEKVTITCSASSSVSSMYWYQLKPDQAPKLLIYDTSKMASGVPIRFSGSGSGTDFTFTVSSVEAEDAATYYCQQWSSYPPITFGGGTKVEIKR |  |  |  |  |  |  |  | no binding (tested: 1 ug/ml) | no binding (tested: 1 ug/ml) | binds | binds
